Test [1] has as its target IgG1 Fc/Fc monospecific antibody. The test can be described thus: flow cytometry: antibody displayed on CHO cells by CSCP FcγR, detected with Anti-hFc.
Test [2] addresses IgG1 Fc/Fc* bispecific antibody. The test is described as above.

Consider one substance from patent publication US20140072980A1.

On to “human FcγRI (from UniProt P12314 16-374) (receptor)”, for which the Mean Fluorescence Intensity (MFI) was found to be 1000 MFI in test [1] and 1800 MFI in test [2].
